A short description of series [1]: Serum stability by radio-HPLC. The series is classed as in vitro ADME, human. As to conditions: diluted in human serum (5x), 37 °C, 72 h; reversed-phase C18 radio-HPLC; n = 3; read-out: radiochemical purity after 72 h in human serum. How it is done: The radiochemical purity of the radioconjugates was determined by reversed-phase HPLC (Waters) with radiometric and UV-vis detectors. The analysis was carried out with a Discovery C18 column (particle size: 5 µm, length: 25 cm, diameter: 4.6 mm). A linear gradient (rate flow: 1 mL/min) of CH3CN-0.1% TFA (B)/H2O-0.1%TFA (A), from 100% to 10% of A in 30 min, was used. For ^225Ac-HEHA-PD-L1-i, fractions of 1.0 mL were collected, and the activity was evaluated in a NaI(Tl) detector (Auto In-v-tron 4010; NML Inc., Houston, TX, USA).
The ^225Ac-HEHA-PD-L1-i and ^177Lu-DOTA-PD-L1-i stability was evaluated in the medium they were obtained after labeling (water/ascorbic acid/sodium acetate) at 0.33, 3, 24, 48, and 72 h with radio-HPLC, as previously described. The conjugate solutions were diluted in human serum (5x) for stability assessment. The conjugates (n = 3) were incubated at 37 °C, and samples were taken at 0.33, 3, 24, 48, and 72 h.

In series [2] the test system is HCC827 human lung cancer cells (PD-L1 positive) vs C6 mouse glioma cells (PD-L1 negative). Description: Cellular uptake assay. Format: cell-based. The settings on record: 1 × 10^5 cells/tube in PBS pH 7, 37 °C, 1 h; 177Lu 4 kBq, 225Ac 0.04 kBq; NaI(Tl) counting; n = 6 / n = 3 (method). Here is the method: HCC827 human lung cancer (PD-L1 positive) and C6 mouse glioma (PD-L1 negative) cell lines were cultured in RPMI-1640 medium with penicillin and streptomycin (100 µg/mL) and fetal bovine serum (15%) in 5% CO2 at 37 °C. Cells diluted in PBS (pH 7) (1 × 10^5 cells/tube) received two different treatments: (a) ^177Lu-DOTA-PD-L1-i (4 kBq) (n = 3) and (b) ^225Ac-HEHA-PD-L1-i (0.04 kBq) (n = 3). Cells were incubated with each treatment at 37 °C for 1 h. After incubation, tubes were measured in a NaI(Tl) detector to determine the initial activity (100%). The tubes were centrifuged at 500× g for 10 min. Then, a mixture of acetic acid/0.5 M NaCl was added, and the centrifugation was repeated. The liquid was removed, and the button activity was measured, corresponding to the percentage of activity captured by the cells regarding the initial activity.

In series [3] the test system is healthy mice. Description: Biodistribution in healthy mice. Format: in vivo, Nu/Nu mice. The settings on record: tail vein, 3.7 MBq 177Lu or 3.7 kBq 225Ac, 0.5-96 h, n = 3. How it is done:
(§1) Under an approved protocol (No. 07-2018-2021), all animal procedures followed the ethical regulations for handling laboratory animals (NOM-062-ZOO-1999) and the Institutional Animal Care and Use Committee requirements. Male Nu/Nu (UPEAL, […], I.PN., Mexico City, Mexico) mice aged 6–8 weeks were maintained in a pathogen-free barrier facility. Mice were injected with 3.7 MBq (50 µL) of ^177Lu DOTA-PD-L1-I or 3.7 kBq (50 µL) of ^225Ac-HEHA-PD-L1-i in the tail vein and sacrificed at 0.5, 1, 3, 24, 72, and 96 h (n = 3). The heart, lungs, liver, pancreas, spleen, kidneys, small intestine, brain, and stomach were dissected to be measured in a NaI(Tl) radioactivity detector. The results are expressed as the percentage of injected dose (%ID) per organ. Blood samples were also extracted, and the activity was recorded as %ID/g. A second group of mice was inoculated intravenously with 1 × 10^6 HCC827 cells. The animals were treated with 3.7 MBq (50 µL) of ^177Lu DOTA-PD-L1-i (n = 3) or 3.7 kBq (50 µL) of ^225Ac-HEHA-PD-L1-i (n = 3) via tail vein injection on day five post-tumor cell inoculation. The animals were dissected as described above. In the case of ^177Lu DOTA-PD-L1-i, radioisotopic/X-ray in vivo/ex vivo images were obtained in a Preclinical Imaging System (Bruker, XTREME). For in vivo imaging, mice were anesthetized with oxygen and 2% isoflurane.

The subject of series [4] is mice intravenously injected with HCC827 lung cancer cells (PD-L1+). The series can be described thus: Biodistribution and biokinetic models in mice with HCC827 lung micrometastases. Format: in vivo, Nu/Nu mice. Here is the method: as §1
The %ID values were used to obtain the biokinetic models ( qht ). The Ah(t) functions were obtained by decay-correcting the biokinetic models, that is, by adding to the biological constant (λB ) the radioactive constant (λR ), as follows (Equation (1)):(1) At=Be^−(λR+λB)t+Ce^−(λR+λB)t+De^−(λR+λB)t

[5] abbreviates: lungs invaded with HCC827 cancer cells.

The values that follow come from article PMC10418980, “Synthesis and Evaluation of ^177Lu-DOTA-PD-L1-i and ^225Ac-HEHA-PD-L1-i as Potential Radiopharmaceuticals for Tumor Microenvironment-Targeted Radiotherapy” (International Journal of Molecular Sciences, 2023).

A value given as a limit tells only on which side of the number the result lay.

Take `CCCC[C@H]1C(=O)N(C)[C@@H](CCCC)C(=O)N[C@@H](CCCNC(=S)Nc2ccc(C[C@H]3CN(CC(=O)O)CCN(CC(=O)O)CCN(CC(=O)O)CCN3CC(=O)O)cc2)C(=O)N[C@H](C(=O)NCC(N)=O)CSCC(=O)N[C@@H](Cc2ccc(O)cc2)C(=O)N(C)[C@@H](C)C(=O)N[C@@H](CC(N)=O)C(=O)N2CCC[C@H]2C(=O)N[C@@H](Cc2c[nH]cn2)C(=O)N[C@@H](CC(C)C)C(=O)N2C[C@H](O)C[C@H]2C(=O)N[C@@H](Cc2c[nH]c3ccccc23)C(=O)N[C@@H](CO)C(=O)N[C@@H](Cc2cn(C)c3ccccc23)C(=O)N1C` [^177Lu-DOTA-PD-L1-i, metal not drawn]: in series [1], the remaining at 72 h was greater than 97.5%. In addition, in series [2], the “uptake in HCC827 cells relative to C6 cells” value is “approximately fourteen”. Besides, the “biodistribution profile in healthy mice” value in series [3] is “rapid blood clearance with renal and hepatobiliary elimination and no accumulation in normal tissues”. In series [4] (kidneys, biokinetic model), the “λ, kidney, fast phase” value came to 3.65 and the “λ, kidney, slow elimination slope” value amounted to 0.009. For the same molecule, the “half-life, kidney, slow elimination slope” value in series [4] (kidneys, t1/2 = ln2/λ) worked out at 77 h. For the same molecule, the “half-life, kidney, fast phase” value in series [4] (kidneys, t1/2 = ln2/λ, 177Lu 3.7 MBq, 225Ac 3.7 kBq i.v.) was 11.4 min. In series [4] (liver, biokinetic model), the “λ, liver, fast phase” value amounted to 1.23 and the “λ, liver, slow phase” value was 0.01. In addition, the “fraction of activity taken up in the liver cleared rapidly” value in series [4] (liver, fast phase (hepatobiliary elimination), 3.7 MBq i.v.) is listed as “seventy-four”. Moreover, the “fraction of activity taken up in the liver cleared slowly” value in series [4] (liver, slow phase) is reported as “twenty-six”. For the same molecule, the “half-life, liver, fast phase” value in series [4] (liver, t1/2 = ln2/λ) is 33.6 min. Further, the “half-life, liver, slow phase” value in series [4] (liver, t1/2 = ln2/λ, 177Lu 3.7 MBq, 225Ac 3.7 kBq i.v.) was 69 h. Also, in series [4] (setting [5]), the “fraction of lung uptake activity with the long half-life” value was “Ninety”; the “fraction of lung uptake activity with the short half-life” value was “ten”; the “half-life, lung, long component” value amounted to 14.44 days; the “half-life, lung, short component” value was found to be 17.3 h.
